This note sets out measurements from US11786605B2, “Site specific antibody-drug conjugates with peptide-containing linkers” (Mersana Therapeutics, Inc., priority 2020, dated 2023).

Assay [1] deals with T1, NaPi2b-derived peptide (Homo sapiens, UniProt O95436).
T1 construct: Genscript); purchased Genscript
T1 sequence (O95436 311-340 limits assumed): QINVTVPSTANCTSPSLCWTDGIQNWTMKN
The assay is described as follows: Binding kinetics to NaPi2b-derived peptide by Biolayer Interferometry. The conditions noted are these: BLI, 25° C. The method, then: The binding kinetics of XMT-1535, Conjugate 7, and Conjugate 11 to immobilized NaPi2b-derived peptide antigen were determined by Biolayer Interferometry (BLI; Octet; ForteBio). Binding constants for XMT-1535, Conjugate 7, and Conjugate 11 were determined using standard Octet procedures (ForteBio). Biotinylated NaPi2b-derived peptide ([…]-biotin; Genscript) was immobilized to streptavidin octet sensors in kinetics buffer (10×). Sensors were then blocked in kinetics buffer (10×) with biocytin (50 μg/mL). Increasing concentrations of XMT-1535, Conjugate 7, or Conjugate 11 were then associated with immobilized peptide in kinetics buffer (10×).
A general note: Biolayer interferometry detects binding as a change in optical thickness at a sensor tip.

Assay [2] addresses T2, human FcRn (Homo sapiens, UniProt P55899).
T2 construct: purchased Immunitrack
The assay is described as follows: Binding kinetics to FcRn by Biolayer Interferometry. The conditions noted are these: BLI, 25° C., pH 6.0. The method, then:
(§1) The binding kinetics of the XMT-1535, Conjugate 7, and Conjugate 11 to Fc receptors (FcRn, FcγRI, FcγRIIA (H167), and FcγRIIIA (V176) were determined by Biolayer Interferometry (BLI; ForteBio Octet QKe) at 25° C. To test binding to Fcγ receptors, XMT-1535, Conjugate 7, and Conjugate 11 were diluted to 1 μg/mL in kinetics buffer (1×) and captured on anti-human Fab-CH1 (FAB2G) biosensors for 10 minutes. All dilutions and baseline measurements were done in kinetics buffer (1×). Baseline measurements were performed at […] before and after each capture step. Association measurements to the various Fc receptors were performed at 7 concentrations (from 1 μM to 100 nM, 2-fold serial dilutions) for 5 minutes. Dissociation was performed for 15 minutes. Binding constants were calculated with the global fit averages of the traces using a 1:1 model. Binding constants for XMT-1535, Conjugate 7, and Conjugate 11 to Fc receptors were determined using standard Octet procedures (ForteBio). Kinetic parameters were calculated using Octet software (ForteBio).
To test binding to FcRn receptor, association of XMT-1535, Conjugate 7, and Conjugate 11 to Fab-CH1 (FAB2G) biosensors was performed as described above. […] Association measurements to FcRn protein (Immunitrack) was measured at 7 concentrations (from 1 μM to 100 nM, 2-fold serial dilutions) for 5 minutes. […]

The target in assay [3] is FcγRI (Homo sapiens, UniProt P12314). Nature of the assay: Binding kinetics to FcγRI by Biolayer Interferometry. The conditions noted are these: BLI, 25° C. The method, then:
as §1
(§2) Tables IV-VII summarize the Kd (equilibrium dissociation constant), kon (rate of association), and koff (rate of dissociation) for human FcRn (Table IV), FcγRI (Table V), FcγRIIA H167 (Table VI), and FcγRIIIA […] (Table VII) for each test article.

The target in assay [4] is T3, FcγRIIA (H167) (Homo sapiens, UniProt P12318).
T3 sequence (P12318 34-217 limits assumed): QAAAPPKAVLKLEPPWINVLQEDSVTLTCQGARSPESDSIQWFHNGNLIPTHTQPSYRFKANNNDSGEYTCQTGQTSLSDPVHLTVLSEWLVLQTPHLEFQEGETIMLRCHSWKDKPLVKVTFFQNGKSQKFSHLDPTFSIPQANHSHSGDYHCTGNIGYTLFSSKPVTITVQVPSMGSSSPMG
The assay is described as follows: Binding kinetics to FcγRIIA by Biolayer Interferometry. The conditions noted are these: FcγRIIA H167, BLI, 25° C. The method, then:
as §1, §2

Assay [5] deals with FcγRIIIA (V176). The assay is described as follows: Binding kinetics to FcγRIIIA by Biolayer Interferometry. More on the design: species or system human. The conditions noted are these: BLI, 25° C. The method, then:
as §1, §2

Chain of FcγRI (P12314 16-374): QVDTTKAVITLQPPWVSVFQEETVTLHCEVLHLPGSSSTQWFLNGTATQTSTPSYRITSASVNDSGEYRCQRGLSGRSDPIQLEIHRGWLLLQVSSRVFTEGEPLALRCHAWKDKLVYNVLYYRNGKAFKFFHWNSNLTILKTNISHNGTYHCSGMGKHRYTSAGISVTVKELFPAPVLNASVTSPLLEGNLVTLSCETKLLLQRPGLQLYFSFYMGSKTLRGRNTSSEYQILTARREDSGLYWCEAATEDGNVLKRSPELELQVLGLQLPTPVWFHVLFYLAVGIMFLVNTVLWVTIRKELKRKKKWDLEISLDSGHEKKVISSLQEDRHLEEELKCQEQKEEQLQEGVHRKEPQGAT
T2 sequence (P55899 24-297 limits assumed): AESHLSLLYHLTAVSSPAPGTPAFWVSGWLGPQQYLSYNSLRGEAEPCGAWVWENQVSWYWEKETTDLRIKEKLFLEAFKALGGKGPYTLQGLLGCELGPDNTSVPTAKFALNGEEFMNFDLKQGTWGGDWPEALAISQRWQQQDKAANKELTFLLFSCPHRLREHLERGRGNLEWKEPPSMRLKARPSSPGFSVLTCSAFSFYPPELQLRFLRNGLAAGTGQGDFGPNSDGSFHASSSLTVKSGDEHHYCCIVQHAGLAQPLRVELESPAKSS
T2 sequence (P61769 21-119 partner): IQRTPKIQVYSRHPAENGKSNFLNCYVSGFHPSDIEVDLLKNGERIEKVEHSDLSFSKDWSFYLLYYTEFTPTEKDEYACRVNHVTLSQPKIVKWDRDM

On to XMT-1535: anti-NaPi2b antibody, for which the “koff, Mean Napi2b binding” value in assay [1] came to 1.27e-05 s⁻¹. For the same substance, the “kon, Mean Napi2b binding” value in assay [1] worked out at 170000 M⁻¹ s⁻¹. For the same substance, the “koff Mean” value in assay [2] came out at 0.000448 s⁻¹; in assay [3], 0.000192 s⁻¹; in assay [4], 0.308 s⁻¹; in assay [5] it was 0.146 s⁻¹. Besides, the “kon Mean” value in assay [2] came out at 160000 M⁻¹ s⁻¹; in assay [3] it was 1.28e+06 M⁻¹ s⁻¹; in assay [4], 175000 M⁻¹ s⁻¹; in assay [5] it was 216000 M⁻¹ s⁻¹.
